Molecular target: the molecule itself
Experiment: solid state NMR

B1: His-tagged TDP-43-LC (low complexity domain of the TAR DNA-binding protein 43, residues 262-414) (domain or fragment)
chain: PKHNSNRQLERSGRFGGNPGGFGNQGGFGNSRGGGAGLGNNQGSNMGGGMNFGAFSINPAMMAAAQAALQSSWGMMGMLASQQNQSGPSGNNQNQGNMQREPNQAFGSGNNSYSGSNSGAAIGWGSASNAGSGSGFNGGFGSSMDSKSSGWGM
- binding result: binds
